Molecular target: T1, prolyl endopeptidase (PEP) (Elizabethkingia meningoseptica, UniProt P27028)
T1 construct: purchased Seikagaku Corporation (Tokyo, Japan)
Test: biochemical
Assay type: biochemical
Conditions: 0.7 and 1.4 mg/mL
Experimental: The PEP activity was determined as previously described with minor modifications. Enzyme assays were performed in 96-well microplates using Z-Gly-Pro-p-nitroanilide as a substrate and measuring the increase in absorbance at 410 nm due to the release of p-nitroaniline. Ten µL of tenfold peptide or hydrolysate solution in 100 mM sodium phosphate buffer, pH 7 ([…] for LFHs), 30 µL of a 0.1 U/mL PEP solution in 100 mM sodium phosphate buffer (pH 7) and 35 µL of the same sodium phosphate buffer were pre-incubated at 30 °C for 5 min, and the mixture incubated with 25 µL of 2 mM Z-Gly-Pro-p-nitroanilide in 40% 1,4-dioxane for 30 min at the same temperature. The reaction was finished by the addition of 100 µL 10% Triton X-100 in 1 M sodium acetate buffer (pH 4), and the absorbance measured at 410 nm in a microplate reader. Data are expressed as the percentage of PEP residual activity with respect to a control without peptide (100%).
The IC50 value of a peptide was defined as the concentration required to inhibit 50% of the PEP activity and the value for each experiment was estimated by non-linear regression of the experimental data to a four-parameter logistic curve using the software package SigmaPlot v 13.0 (SPSS Inc., Chicago, IL, USA).

T1 sequence (P27028 21-705): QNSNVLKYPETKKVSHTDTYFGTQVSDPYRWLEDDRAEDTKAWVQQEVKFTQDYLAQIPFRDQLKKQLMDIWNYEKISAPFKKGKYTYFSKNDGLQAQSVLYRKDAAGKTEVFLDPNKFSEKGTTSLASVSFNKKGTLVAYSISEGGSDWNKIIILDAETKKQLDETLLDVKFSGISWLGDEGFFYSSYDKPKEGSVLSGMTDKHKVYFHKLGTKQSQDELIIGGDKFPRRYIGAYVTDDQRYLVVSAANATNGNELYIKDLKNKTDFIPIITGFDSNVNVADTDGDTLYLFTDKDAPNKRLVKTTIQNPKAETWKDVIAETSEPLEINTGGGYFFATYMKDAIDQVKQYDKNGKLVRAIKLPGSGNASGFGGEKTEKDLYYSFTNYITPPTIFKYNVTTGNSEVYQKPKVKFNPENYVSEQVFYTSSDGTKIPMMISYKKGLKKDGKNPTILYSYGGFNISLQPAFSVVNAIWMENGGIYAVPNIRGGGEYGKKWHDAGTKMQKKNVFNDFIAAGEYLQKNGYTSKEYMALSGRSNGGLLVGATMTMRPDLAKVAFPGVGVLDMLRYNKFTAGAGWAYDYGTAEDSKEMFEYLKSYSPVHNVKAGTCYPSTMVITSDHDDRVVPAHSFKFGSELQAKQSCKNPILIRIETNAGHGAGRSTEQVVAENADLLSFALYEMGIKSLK

B1: Non-hydrolysed LF: bovine lactoferrin, multifunctional iron glycoprotein of milk whey, not hydrolysed (protein, UniProt P24627 20-708, looked up)
Lactotransferrin: APRKNVRWCTISQPEWFKCRRWQWRMKKLGAPSITCVRRAFALECIRAIAEKKADAVTLDGGMVFEAGRDPYKLRPVAAEIYGTKESPQTHYYAVAVVKKGSNFQLDQLQGRKSCHTGLGRSAGWIIPMGILRPYLSWTESLEPLQGAVAKFFSASCVPCIDRQAYPNLCQLCKGEGENQCACSSREPYFGYSGAFKCLQDGAGDVAFVKETTVFENLPEKADRDQYELLCLNNSRAPVDAFKECHLAQVPSHAVVARSVDGKEDLIWKLLSKAQEKFGKNKSRSFQLFGSPPGQRDLLFKDSALGFLRIPSKVDSALYLGSRYLTTLKNLRETAEEVKARYTRVVWCAVGPEEQKKCQQWSQQSGQNVTCATASTTDDCIVLVLKGEADALNLDGGYIYTAGKCGLVPVLAENRKSSKHSSLDCVLRPTEGYLAVAVVKKANEGLTWNSLKDKKSCHTAVDRTAGWNIPMGLIVNQTGSCAFDEFFSQSCAPGADPKSRLCALCAGDDQGLDKCVPNSKEKYYGYTGAFRCLAEDVGDVAFVKNDTVWENTNGESTADWAKNLNREDFRLLCLDGTRKPVTEAQSCHLAVAPNHAVVSRSDRAAHVKQVLLHQQALFGKNGKNCPDKFCLFKSETKNLLFNDNTECLAKLGGRPTYEEYLGTEYVTAIANLKKCSTSPLLEACAFLTR
- inhibitory effect on PEP activity: did not show any inhibitory effect
